Experimental data: IntAct's records for PubMed 21900546

B1: Neutrophil cytosol factor 2 (Homo sapiens), P19878 (parent)
chain: MSLVEAISLWNEGVLAADKKDWKGALDAFSAVQDPHSRICFNIGCMYTILKNMTEAEKAFTRSINRDKHLAVAYFQRGMLYYQTEKYDLAIKDLKEALIQLRGNQLIDYKILGLQFKLFACEVLYNIAFMYAKKEEWKKAEEQLALATSMKSEPRHSKIDKAMECVWKQKLYEPVVIPVGKLFRPNERQVAQLAKKDYLGKATVVASVVDQDSFSGFAPLQPQAAEPPPRPKTPEIFRALEGEAHRVLFGFVPETKEELQVMPGNIVFVLKKGNDNWATVMFNGQKGLVPCNYLEPVELRIHPQQQPQEESSPQSDIPAPPSSKAPGRPQLSPGQKQKEEPKEVKLSVPMPYTLKVHYKYTVVMKTQPGLPYSQVRDMVSKKLELRLEHTKLSYRPRDSNELVPLSEDSMKDAWGQVKNYCLTLWCENTVGDQGFPDEPKESEKADANNQTTEPQLKKGSQVEALFSYEATQPEDLEFQEGDIILVLSKVNEEWLEGECKGKVGIFPKVFVEDCATTDLESTRREV

Variants of: B1
Conditions: with rac2_human RAC2, P15153

Row | Variant | effect of a mutation on the interaction
1 | MSLVEAISLWNEGVLAADKKDWKGALDAFSAVQDPHSQICFNIGCMYTILKNMTEAEKAFTRSINRDKHLAVAYFQRGMLYYQTEKYDLAIKDLKEALIQLRGNQLIDYKILGLQFKLFACEVLYNIAFMYAKKEEWKKAEEQLALATSMKSEPRHSKIDKAMECVWKQKLYEPVVIPVGKLFRPNERQVAQLAKKDYLGKATVVASVVDQDSFSGFAPLQPQAAEPPPRPKTPEIFRALEGEAHRVLFGFVPETKEELQVMPGNIVFVLKKGNDNWATVMFNGQKGLVPCNYLEPVELRIHPQQQPQEESSPQSDIPAPPSSKAPGRPQLSPGQKQKEEPKEVKLSVPMPYTLKVHYKYTVVMKTQPGLPYSQVRDMVSKKLELRLEHTKLSYRPRDSNELVPLSEDSMKDAWGQVKNYCLTLWCENTVGDQGFPDEPKESEKADANNQTTEPQLKKGSQVEALFSYEATQPEDLEFQEGDIILVLSKVNEEWLEGECKGKVGIFPKVFVEDCATTDLESTRREV [R38Q] | decreasing interaction strength
